Experimental data: the supplement of paper PMC7877785
± gives the uncertainty stated by the source.

Test: self-splicing fitness, log relative to wild type (ln ratio); higher = more splicing; Tetrahymena group I intron in knt gene, E. coli kanamycin selection, DiMSum; sequences stand for … in CUCUCU…GGAGGGAAAAGUUAUCAGGCAUGCACCUGGUAGCUAGUCUUUAAACCAAUAGAUUGCAUCGGUUUAAAAGGCAAGACCGUCAAAUUGCGGGAAAGGGGUCAACAGCCGUUCAGUACCAAGUCUCAGGGGAAACUUUGAGAUGGCCUUGCAAAGGGUAUGGUAAUAAGCUGACGGACAUGGUCCUAACCACGCAGCCAAGUCCUAAGUCAACAGAUCUUCUGUUGAUAUGGAUGCAGUUCACAGACUAAAUGUCGGUCGGGGAAGAUGUAUUCUUCUCAUAAGAUAUAGUCGGACCUCUCCUUAAUGGGAGCUAGCGGAUGAAGUGAUGCAACACUGGAGCCGCUGGGAACUAAUUUGUAUGCGAAAGUAUAUUGAUUAGUUUUGGAGUACUCGUGGUCG
Procedure, shortened: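 A randomised library covering all eight P1ex-region intron nucleotides was built with the intron in the knt kanamycin-resistance gene on pET-22b(+) and held in E. coli BL21(DE3). Cells were grown overnight at 37°C or 30°C on LB agar, with or without 25 μg/mL kanamycin, plus 100 μg/mL carbenicillin, 50 μM IPTG and 0.2% rhamnose, and pooled colonies were amplicon-sequenced on an Illumina HiSeq 2500. DiMSum fitness is the error-weighted combination of wild-type-normalised replicate fold changes, kanamycin versus none.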

Sequence | self-splicing fitness (ln) (30 °C) | self-splicing fitness (ln) (37 °C)
GCACAGCAAUAUUACGAUCA | -0.983 ± 0.13 | -0.209 ± 0.14
GCACAGCAAUAUUACGCACG | -2.06 ± 0.11 | -0.889 ± 0.1
GCACAGCAAUAUUACGCCAU | -3.37 ± 0.12 | -2.42 ± 0.12
GCACAGCAAUAUUACGCCUG | -1.28 ± 0.087 | -0.89 ± 0.1
GCACAGCAAUAUUACGCGUC | -3.73 ± 0.2 | -0.646 ± 0.098
GCACAGCAAUAUUACGCUCA | -1.08 ± 0.088 | -0.585 ± 0.1
GCACAGCAAUAUUACGCUUC | -2.21 ± 0.094 | -1.3 ± 0.098
GCACAGCAAUAUUACGGCUU | -0.432 ± 0.054 | -0.0629 ± 0.064
GCACAGCAAUAUUACGGUUA | -0.902 ± 0.055 | -0.384 ± 0.059
GCACAGCAAUAUUACGUUAA | -1.04 ± 0.055 | -0.544 ± 0.065
GCACAGCAAUAUUACGUUUU | -1.14 ± 0.046 | -0.268 ± 0.065
GCAGAGCAAUAUUACGAACA | -3.11 ± 0.4 | –
GCAGAGCAAUAUUACGACGU | -0.995 ± 0.14 | -1.5 ± 0.18
GCAGAGCAAUAUUACGAUUG | -4.02 ± 0.28 | -2.95 ± 0.23
GCAGAGCAAUAUUACGCACA | -2.09 ± 0.24 | –
GCAGAGCAAUAUUACGCAGU | -3.61 ± 0.29 | -1.86 ± 0.3
GCAGAGCAAUAUUACGCCAU | -3.75 ± 0.4 | -2.78 ± 0.32
GCAGAGCAAUAUUACGCCGA | – | -0.676 ± 0.34
GCAGAGCAAUAUUACGCCUA | – | -2.09 ± 0.3
GCAGAGCAAUAUUACGCUAG | -1.83 ± 0.44 | -1.79 ± 0.2
GCAGAGCAAUAUUACGCUUA | -1.76 ± 0.3 | -1.99 ± 0.3
GCAGAGCAAUAUUACGGCAA | -3.59 ± 0.46 | -3.6 ± 0.42
GCAGAGCAAUAUUACGGGGU | -3.34 ± 0.23 | -3.16 ± 0.31
GCAGAGCAAUAUUACGUAUA | -1.41 ± 0.22 | -2.76 ± 0.47
GCAGAGCAAUAUUACGUCUC | – | -2.17 ± 0.31

Sequence | self-splicing fitness (ln) (30 °C) | self-splicing fitness (ln) (37 °C)
GCAGAGCAAUAUUACGUUCG | -1.91 ± 0.14 | -1.99 ± 0.3
GCAUAGCAAUAUUACGAACC | -1.45 ± 0.089 | 0.452 ± 0.1
GCAUAGCAAUAUUACGAACU | -1.11 ± 0.084 | -0.315 ± 0.11
GCAUAGCAAUAUUACGACAC | 0.147 ± 0.14 | -0.214 ± 0.19
GCAUAGCAAUAUUACGACCC | -0.0863 ± 0.27 | 0.324 ± 0.39
GCAUAGCAAUAUUACGAGAC | -2.7 ± 0.32 | -1.59 ± 0.23
GCAUAGCAAUAUUACGAUCA | -2.05 ± 0.34 | 0.131 ± 0.22
GCAUAGCAAUAUUACGCAUC | -3.1 ± 0.23 | -3.22 ± 0.27
GCAUAGCAAUAUUACGCGUU | -2.03 ± 0.11 | -2.14 ± 0.17
GCAUAGCAAUAUUACGCUAA | -2.72 ± 0.27 | -2.49 ± 0.22
GCAUAGCAAUAUUACGCUUA | -1.6 ± 0.14 | -1.18 ± 0.1
GCAUAGCAAUAUUACGGACC | -0.439 ± 0.1 | -0.576 ± 0.093
GCAUAGCAAUAUUACGGAGG | -3.03 ± 0.12 | -3.37 ± 0.21
GCAUAGCAAUAUUACGGCAA | -1.49 ± 0.18 | -0.271 ± 0.17
GCAUAGCAAUAUUACGGCUC | 0.0416 ± 0.087 | -0.0445 ± 0.088
GCAUAGCAAUAUUACGGGUA | -0.992 ± 0.12 | -1.11 ± 0.11
GCAUAGCAAUAUUACGGGUG | -2.29 ± 0.13 | -1.82 ± 0.12
GCAUAGCAAUAUUACGGUCA | -0.966 ± 0.09 | -0.953 ± 0.096
GCAUAGCAAUAUUACGGUCG | -1.77 ± 0.12 | -1.12 ± 0.12
GCAUAGCAAUAUUACGGUUU | -1.62 ± 0.08 | -0.625 ± 0.085
GCAUAGCAAUAUUACGUAAU | -2.58 ± 0.1 | -0.793 ± 0.096
GCAUAGCAAUAUUACGUCUC | -1.85 ± 0.14 | -0.552 ± 0.11
GCAUAGCAAUAUUACGUGAG | -0.159 ± 0.069 | -0.351 ± 0.083
GCAUAGCAAUAUUACGUGCC | -3.42 ± 0.21 | -1.03 ± 0.29
GCAUAGCAAUAUUACGUUAA | -2.44 ± 0.19 | -1.81 ± 0.15

Sequence | self-splicing fitness (ln) (30 °C) | self-splicing fitness (ln) (37 °C)
GCCAAGCAAUAUUACGAAAC | -2.15 ± 0.14 | -0.23 ± 0.14
GCCAAGCAAUAUUACGAAAU | -3.24 ± 0.19 | -2.28 ± 0.18
GCCAAGCAAUAUUACGACCG | -3.81 ± 0.22 | -2.01 ± 0.12
GCCAAGCAAUAUUACGACGU | -0.238 ± 0.099 | 0.0827 ± 0.088
GCCAAGCAAUAUUACGAGAA | -2.69 ± 0.4 | -0.69 ± 0.35
GCCAAGCAAUAUUACGAGAU | -2.41 ± 0.14 | -2.1 ± 0.17
GCCAAGCAAUAUUACGAGGG | -2.8 ± 0.094 | -1.82 ± 0.11
GCCAAGCAAUAUUACGAGUG | -2.32 ± 0.087 | -1.72 ± 0.093
GCCAAGCAAUAUUACGAUGU | -0.536 ± 0.061 | 0.0237 ± 0.084
GCCAAGCAAUAUUACGAUUA | -2.86 ± 0.17 | -2.57 ± 0.15
GCCAAGCAAUAUUACGCAAC | -1.98 ± 0.13 | -1.32 ± 0.16
GCCAAGCAAUAUUACGGAAA | -1.46 ± 0.16 | -1.14 ± 0.13
GCCAAGCAAUAUUACGGAAC | -1.73 ± 0.18 | -0.77 ± 0.18
GCCAAGCAAUAUUACGGAGG | -3.49 ± 0.19 | -1.08 ± 0.16
GCCAAGCAAUAUUACGGCUG | -3.81 ± 0.13 | -3.25 ± 0.19
GCCAAGCAAUAUUACGGGCU | -4.88 ± 0.28 | -2.98 ± 0.23
GCCAAGCAAUAUUACGGUAA | -0.713 ± 0.1 | 0.0284 ± 0.1
GCCAAGCAAUAUUACGGUAU | -1.62 ± 0.069 | 0.416 ± 0.076
GCCAAGCAAUAUUACGGUGA | -1.06 ± 0.06 | -0.493 ± 0.065
GCCAAGCAAUAUUACGGUGU | -1.48 ± 0.049 | -0.507 ± 0.06
GCCAAGCAAUAUUACGUACA | -2.65 ± 0.16 | -1.65 ± 0.11
GCCAAGCAAUAUUACGUACG | -1.79 ± 0.078 | -1.56 ± 0.11
GCCAAGCAAUAUUACGUCGA | -2.34 ± 0.16 | -1.29 ± 0.14
GCCAAGCAAUAUUACGUUCC | -0.712 ± 0.1 | -0.674 ± 0.16
GCCCAGCAAUAUUACGACGC | -0.00307 ± 0.052 | -0.0866 ± 0.067

Sequence | self-splicing fitness (ln) (30 °C) | self-splicing fitness (ln) (37 °C)
GCCCAGCAAUAUUACGACUG | -4.23 ± 0.22 | -2.44 ± 0.19
GCCCAGCAAUAUUACGAGAA | -0.685 ± 0.28 | -0.511 ± 0.21
GCCCAGCAAUAUUACGAUCU | -1.36 ± 0.092 | -1.47 ± 0.12
GCCCAGCAAUAUUACGCAAA | -2.41 ± 0.14 | -1.3 ± 0.11
GCCCAGCAAUAUUACGCCCU | -0.933 ± 0.12 | -0.685 ± 0.16
GCCCAGCAAUAUUACGCCGU | -0.724 ± 0.092 | -0.492 ± 0.094
GCCCAGCAAUAUUACGCCUA | -1.9 ± 0.18 | -0.261 ± 0.12
GCCCAGCAAUAUUACGCGGU | -3.33 ± 0.16 | -3.02 ± 0.19
GCCCAGCAAUAUUACGCUCG | -3.45 ± 0.24 | -2.34 ± 0.27
GCCCAGCAAUAUUACGCUGC | – | -1.55 ± 0.41
GCCCAGCAAUAUUACGCUUA | -0.569 ± 0.071 | -0.378 ± 0.08
GCCCAGCAAUAUUACGCUUU | 0.177 ± 0.056 | 0.242 ± 0.074
GCCCAGCAAUAUUACGGACA | -0.873 ± 0.12 | -0.931 ± 0.13
GCCCAGCAAUAUUACGGAGG | -4.2 ± 0.15 | -2.51 ± 0.13
GCCCAGCAAUAUUACGGGCC | -3.22 ± 0.13 | -2.58 ± 0.26
GCCCAGCAAUAUUACGGGGU | -3.84 ± 0.19 | -2.77 ± 0.24
GCCCAGCAAUAUUACGGUCA | -0.8 ± 0.071 | -0.326 ± 0.074
GCCCAGCAAUAUUACGGUGG | -3.21 ± 0.17 | -3.59 ± 0.25
GCCCAGCAAUAUUACGUACG | -3.98 ± 0.37 | -1.41 ± 0.18
GCCCAGCAAUAUUACGUAGG | -2.35 ± 0.24 | -2.15 ± 0.2
GCCCAGCAAUAUUACGUCGG | -3.13 ± 0.13 | -3.08 ± 0.2
GCCCAGCAAUAUUACGUUAA | -1.6 ± 0.097 | -1.01 ± 0.089
